Assay results from the nanobody polyreactivity screen of Harvey et al. (2022).

Experiment: yeast display, Sf9 membrane polyspecificity reagent, FACS + sequencing; frameworks hold sequencing errors
Method in brief: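 A nanobody's polyreactivity label depends on the gate it was sorted from. Yeast display cells were stained with 10% biotinylated, detergent-solubilized Sf9 membrane reagent for 1 hour at 4 °C, enriched on streptavidin microbeads and sorted by FACS. The low and high (top ~1%) gates were set on anti-HA fluorescence for expression and streptavidin fluorescence for reagent binding.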

QVQLVESGGGLVQAGGSLRLSCAASGYIFNKYVMGWYRQAPGKERELVAAISASGGSTYYADSVKGRFTISRDNAKNTVYLQMNSLKPEDTSVYYCAATLYRRMDYWGQGTQVTVSS
polyreactivity (PSR sort gate): high polyreactivity

QVQLVESGGGLVQAGGSLRLSCAASGRSIWYYTMGWYRQAPGKERQFFAAITTSGGSTTYADSVKGRYTISRDTAKNTVFLQRNSLKPEDSAVYYCAARVYHGKSKYDYWGQGSQVTVSS
polyreactivity (PSR sort gate): high polyreactivity

QVQLVESGGGLVQAGGSLRLSCAASGSILSGYAMGWYRQAPGKERELVAAISWSGGSTYYADSVKGRFTISRDNAKNTVYLQMNSLKPEDTAVYYCAAASVPWGGYYWGQGTQVTVSS
polyreactivity (PSR sort gate): low polyreactivity

QVQLVESGGGLVQAGGSLRLSCAASGRIFRGNVMGWYRQAPGKERELVAVIRSSSGRTYYADSVKGRFTISRDNAKNTVYLQMNSLKPEDTAVYYCAAKSVWGQGTQVTVSS
polyreactivity (PSR sort gate): high polyreactivity

QVQLVESGGGLVQAGGSLRLSCAASGGIFSYAMGWSRQAPGKERELVADINSDGSTTYADSVKGRFTISRDNAKNTVYLQMNSLKPEDTAVYYCAVDVSVNWPLLERYEYWGQGTQVTVSS
polyreactivity (PSR sort gate): low polyreactivity

QVQLVESGGGLVQAGGSLRLSCAASGRTFSFYAMGWYRQAPGKERELVAGIDWDDGSTSYADSVKGRFTISRDNAKNTVYLQMNSLKPEDTAVYYCAAGPYAGVDPGDYYYWGQGTQVTVSS
polyreactivity (PSR sort gate): low polyreactivity

QVQLVESGGGLVQAGGSLRLSCAASGFTFYRYAMGWYRQAPGKERELVAAITWSGGSTYYADSVKGRFTISRDNAKNTVYLQMNSLKPEDTAVYYCAASRWIFQVNDYDYWGQGTQETVSS
polyreactivity (PSR sort gate): high polyreactivity

QVQLVESGGGLVQAGGSLRLSCAASGSTFGSNAMGWYRQEPGKERELVAAITGGGTTSYADSVKGRFTISRDNAKNTVYLQMNSLKPEDTAVYYCNVLFADKSDYWGQGTQVTVSS
polyreactivity (PSR sort gate): low polyreactivity

QVQLVESGGGLVQAGGSLSLSCAASGSTFKHYAMGWYRQAPGKERELVAAISSRGGSTHYADSVKGRFTISRDNAMNTVYLQMNSLKPEDTAVYYCARDTDPQSSRSSDYDYWGQGTHVTVSS
polyreactivity (PSR sort gate): low polyreactivity

QVQLVESGGGLVQAGGSLRLSCAASGRIFTSNVMGWYRQAPGKERELVAAISWTGGNTYYADSVKGRFTISRDKAKNSVYLQMNSLKPEDTAVYYCAVTYWSAVFIPNKYDYWGQGTQVTVSS
polyreactivity (PSR sort gate): low polyreactivity

QVQLVESGGALVQAGGSLSLSCAASGFIFQPYAMGWYRQAPGKERELVAAITSRGGRTYYADSVMGRFTISRDNAKNTVYLQMNSLKPEDSAVYYCNADIYASEYYYWGQGTQVTVSS
polyreactivity (PSR sort gate): low polyreactivity

QVQLVESGGGLVQAGGSLRLSCDASGFNIASYDMGWYRQAPGKERELVAAISKGGGRTYYADSVKGRFTISRDNAKNTVYLQMKSLKPEDTAVYYCAAYAPYPRRAYDYWGQGTQVTVSS
polyreactivity (PSR sort gate): low polyreactivity

QVQLVESGGGLVQAGGSLSLSCAASGRTFNSYAMGWYRQAPGKERELVAAISWSGGSTYYADSVKGRFTISRDNAKNTVYLQMNSLKPEDTAVFYCATERYQSSRYRSYWYPFDYWGQGTQVTVSS
polyreactivity (PSR sort gate): low polyreactivity

QVQLVESGGGLVQAGGSLRLSCAASGSIFRVYAMGWYRQAPGKERELVASMSSDGSTYYADSVKGRFTISRDNAKNTVYLQMNSLKPEDTAVYYEYDWGQGTQVTVSS
polyreactivity (PSR sort gate): low polyreactivity

QVQLVESGGGLVQAGGSLRLSCAASGFTFRRYAMGWYRQAPGKERELVAAINWNGDSTYYADSVKGRFTISRDNAKNTVYLQMNSVKPEDTAVYYCATSDYYYDYWGQGTQVTVSS
polyreactivity (PSR sort gate): high polyreactivity

QVQLVESGGGLVQAGGSLRLSCAASGRIFTNYAMGWYRQAPGKEREFVAAISWSDGSTYYADSVKGRFTISRDNAKNTVYLQMNSLKPEDTAVYYCATEGTYGTFYSYRHFYYWGQGTQVTVSS
polyreactivity (PSR sort gate): high polyreactivity

QVQLVESGGGLVQAGGSLRLSCAASGFIFGGYAMGWYRQAPGKERELVAAISSSGGSTYYADSVKGRFTISRDNAKNTVYLQMNSLKPEDTAVYYCAKVGWSRRYYYWGQGTQVTVSS
polyreactivity (PSR sort gate): high polyreactivity

QVQLVESGGGLVQAGGRLRLSCSASGLTVYRKAMGWSRQAPGKEREMVAAITSSGGRTYYADSVKGRFTISRDNAKNTVYLLMNSLKAEDTALYYCAADFCLGYYYWGQGTQVTVSS
polyreactivity (PSR sort gate): high polyreactivity
